Results reported in patent publication US20020192789A1 (published 2002).
Changes are numbered by the printed parent chain.

B1: GNYTDRMFI (peptide)
peptide: GNYTDRMFI
B2: GDDDDKIYV (positive control test peptide) (peptide)
peptide: GDDDDKIYV
B3: DINDDRSLF (peptide)
peptide: DINDDRSLF
B4: phage isolate 5-H11 display polypeptide (other)
chain: AEWHPQFSSPSASRPSEGPCHPQFPRCYIENLDEFRPGGSGGMGDDDDKIYVYKTGAQSDGGGSTEHAEGGSADPSYIEGRIVGSA
notes: The printed 13-mer is used instead; also called 05-H11; not shown: M13 phage gene III protein; the display polypeptide is fused to its N-terminus
B5: phage isolate 5-A01 display polypeptide (other)
chain: AEWHPQFSSPSASRPSEGPCHPQFPRCYIENLDEFRPGGSGGDRMYQLDKTGFMIGAQSDGGGSTEHAEGGSADPSYIEGRIVGSA
notes: not shown: M13 phage gene III protein; the display polypeptide is fused to its N-terminus
B6: phage isolate 5-A08 display polypeptide (other)
chain: B5 chain with R44M, M45F, Y46S, Q47E, L48E, K50R, T51M, G52M, F53Q, I55Q
notes: The printed 13-mer is used instead; also called 05-A08; not shown: M13 phage gene III protein; the display polypeptide is fused to its N-terminus
B7: phage isolate 5-A11 display polypeptide (other)
chain: AEWHPQFSSPSASRPSEGPCHPQFPRCYIENLDEFRPGGSGGDLNDVYSERMAMWGAQSDGGGSTEHAEGGSADPSYIEGRIVGSA
notes: The printed 13-mer is used instead; also called 05-A11; not shown: M13 phage gene III protein; the display polypeptide is fused to its N-terminus
B8: phage isolate 5-B05 display polypeptide (other)
chain: B7 chain with D43S, N45D, V47D, Y48R, S49T, E50V, R51S, M52P, A53K, M54F
notes: The printed 13-mer is used instead; also called 05-B05; not shown: M13 phage gene III protein; the display polypeptide is fused to its N-terminus
B9: phage isolate 5-F08 display polypeptide (unselected control) (other)
chain: AEWHPQFSSPSASRPSEGPCHPQFPRCYIENLDEFRPGGSGGAVLSNVMHSDDWTGAQSDGGGSTEHAEGGSADPSYIEGRIVGSA
notes: as for B5

Target: recombinant light chain enterokinase (Novagen, Madison, Wis.) (UniProt P98072 801-1035)
Test: cell-based or functional assay

Chain of recombinant light chain enterokinase (Novagen, Madison, Wis.) (P98072 801-1035 limits assumed): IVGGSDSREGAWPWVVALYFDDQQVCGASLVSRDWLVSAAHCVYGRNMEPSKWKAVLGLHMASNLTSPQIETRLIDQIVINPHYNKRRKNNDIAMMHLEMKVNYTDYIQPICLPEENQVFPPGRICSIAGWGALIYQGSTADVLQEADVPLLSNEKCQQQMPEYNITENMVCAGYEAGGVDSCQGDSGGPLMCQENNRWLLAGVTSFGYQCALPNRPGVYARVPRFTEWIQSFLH

Which “test peptide rate (Va), in competition with reference peptide GDDDDK-βNA” value (from here on “test peptide rate (Va), in competition”) does the source give for B1 here?
The value was 0.038.

For B2, which “test peptide rate (Va), in competition” value is on record?
The value was 0.028.

Which “test peptide rate (Va), in competition” value does the source give for B3 here?
The value was 0.18.

Target: T1, streptavidin (UniProt P22629 37-163, limits assumed)
T1 construct: Commercial immobilized streptavidin; the construct is not described; also called Sv; immobilized streptavidin
Test: phage ELISA, phage bound to immobilized streptavidin

T1 sequence (P22629 37-163 limits assumed): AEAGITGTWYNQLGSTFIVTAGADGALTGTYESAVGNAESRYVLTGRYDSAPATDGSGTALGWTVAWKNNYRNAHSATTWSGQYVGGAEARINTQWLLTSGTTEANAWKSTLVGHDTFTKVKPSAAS

Does B4 bind?
Result: binds

Does B5 bind?
Result: binds

Does B6 bind?
Result: binds

Does B7 bind?
Result: binds

Does B8 bind?
Result: binds

Does B9 bind?
Result: binds
